B1: Ribonuclease, P00648 (parent)
chain: MMKMEGIALKKRLSWISVCLLVLVSAAGMLFSTAAKTETSSHKAHTEAQVINTFDGVADYLQTYHKLPDNYITKSEAQALGWVASKGNLADVAPGKSIGGDIFSNREGKLPGKSGRTWREADINYTSGFRNSDRILYSSDWLIYKTTDHYQTFTKIR

Variants of: B1
Details: Bacillus amyloliquefaciens, pH 6.3, 25 °C, Fluorescence, MES 450 mM, reversible: yes, structure 1BNI, whole UniProt chain shown

Variant	ddG of mutation (higher = less stable) (Urea) [kcal/mol]	denaturant m value (Urea) [kcal/mol/M]	denaturant midpoint (higher = more stable) (Urea) [M]	unfolding free energy (Urea) [kcal/mol]	ddG of mutation (higher = less stable) (GdnHCl) [kcal/mol]	denaturant m value (GdnHCl) [kcal/mol/M]	denaturant midpoint (higher = more stable) (GdnHCl) [M]	unfolding free energy (GdnHCl) [kcal/mol]
MMKMEGIALKKRLSWISVCLLVLVSAAGMLFSTAAKTETSSHKAHTEAQVINTFDGVADYLQTYHKLPDNYITKSEAQALGWVASKGNLCDVAPGKSIGGDIFSNREGKLPGKSGRTWREADINYTCGFRNSDRILYSSDWLIYKTTDHYQTFTKIR	-1.21	1.73	5.77	10	–	–	–	–
MMKMEGIALKKRLSWISVCLLVLVSAAGMLFSTAAKTETSSHKAHTEAQVINTFDGVADYLQTYHKLPDNYITKSEAQALGWVASKGNLADVAPGKSIGGDIFSNREGKLPGKSGRTWREADINYTSGFRNCDRILYSSDWLIYKTTDCYQTFTKIR	–	–	–	–	-4.1	4.3	3	12.9

— FireProtDB (doi:10.1021/bi00067a022)
